The text below walks through data of paper PMC4136698.

What all share (assay): pull-down
The target in assay [1] is SH2 affinity peptide (EPQpYEEIPIYL).
For assay [2] the target is unchanged. This is another data set of the same source.
Assay [3] has as its target SNAP tag–polyproline peptide fusion (…).

Like-named read-outs stand apart in the source and are kept apart here.

Turning to Hck (residues 84–531) (enzyme), the figures for the percent retained relative to Hck–1 in assay [1] and in assay [2] were 17% and 2%, respectively.
Turning to Hck^Y527F (enzyme), in assay [3], the percent of kinase retained by the immobilized SH3 domain ligand is 38% and the percent of total kinase retained on beads turned out to be 2%.
